Square brackets hold non-standard residues; d marks the D form. Aib = CC(C)(N)C(=O)O
T1: human GLP-2 receptor (hGLP2-R) (human, UniProt O95838 1-553)
T1 sequence (looked up): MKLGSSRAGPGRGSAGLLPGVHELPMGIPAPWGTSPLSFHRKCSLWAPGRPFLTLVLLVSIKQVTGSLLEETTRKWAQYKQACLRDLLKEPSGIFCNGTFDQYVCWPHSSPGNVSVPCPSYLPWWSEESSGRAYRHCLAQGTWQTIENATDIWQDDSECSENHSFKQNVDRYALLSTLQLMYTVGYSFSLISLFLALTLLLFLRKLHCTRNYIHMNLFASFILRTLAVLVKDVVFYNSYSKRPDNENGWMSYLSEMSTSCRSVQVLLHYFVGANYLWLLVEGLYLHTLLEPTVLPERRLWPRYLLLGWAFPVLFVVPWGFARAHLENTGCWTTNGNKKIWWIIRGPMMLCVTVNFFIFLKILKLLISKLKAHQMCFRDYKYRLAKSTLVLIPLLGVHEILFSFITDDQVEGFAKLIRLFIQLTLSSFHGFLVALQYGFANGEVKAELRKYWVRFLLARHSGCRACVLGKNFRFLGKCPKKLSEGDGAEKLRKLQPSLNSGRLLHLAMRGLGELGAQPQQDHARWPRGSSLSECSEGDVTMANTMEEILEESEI


Experiments:
[1] = biological target: T1, human GLP-2 receptor (hGLP2-R); assay: cell-based or functional assay
[2] = biological target: human glucagon-like peptide 1 receptor (GLP-1R) (human, UniProt P43220 24-463); assay: cell-based or functional assay

EC50 GLP-2 (nM); cAMP AlphaScreen, HEK293 cells expressing human GLP-2R [1] [nM]	EC50 GLP-1 (nM); cAMP AlphaScreen, HEK293 cells expressing human GLP-1R [2] [nM]	Binder
0.062	0.008	H-H[Aib]EGSFTSELATILDEQAARDFIAWLIAQKITD-OH (SMILES CC[C@H](C)[C@H](NC(=O)[C@H](CC(C)C)NC(=O)[C@H](Cc1c[nH]c2ccccc12)NC(=O)[C@H](C)NC(=O)[C@@H](NC(=O)[C@H](Cc1ccccc1)NC(=O)[C@H](CC(=O)O)NC(=O)[C@H](CCCNC(=N)N)NC(=O)[C@H](C)NC(=O)[C@H](C)NC(=O)[C@H](CCC(N)=O)NC(=O)[C@H](CCC(=O)O)NC(=O)[C@H](CC(=O)O)NC(=O)[C@H](CC(C)C)NC(=O)[C@@H](NC(=O)[C@@H](NC(=O)[C@H](C)NC(=O)[C@H](CC(C)C)NC(=O)[C@H](CCC(=O)O)NC(=O)[C@H](CO)NC(=O)[C@@H](NC(=O)[C@H](Cc1ccccc1)NC(=O)[C@H](CO)NC(=O)CNC(=O)[C@H](CCC(=O)O)NC(=O)C(C)(C)NC(=O)[C@@H](N)Cc1c[nH]cn1)[C@@H](C)O)[C@@H](C)O)[C@@H](C)CC)[C@@H](C)CC)C(=O)N[C@@H](C)C(=O)N[C@@H](CCC(N)=O)C(=O)N[C@@H](CCCCN)C(=O)N[C@H](C(=O)N[C@H](C(=O)N[C@@H](CC(=O)O)C(=O)O)[C@@H](C)O)[C@@H](C)CC) [Compound 25]
0.024	0.11	H-H[Aib]EGSFTSELATILDEQAARDFIAWLYAHKITD-OH (SMILES CC[C@H](C)[C@H](NC(=O)[C@H](Cc1ccccc1)NC(=O)[C@H](CC(=O)O)NC(=O)[C@H](CCCNC(=N)N)NC(=O)[C@H](C)NC(=O)[C@H](C)NC(=O)[C@H](CCC(N)=O)NC(=O)[C@H](CCC(=O)O)NC(=O)[C@H](CC(=O)O)NC(=O)[C@H](CC(C)C)NC(=O)[C@@H](NC(=O)[C@@H](NC(=O)[C@H](C)NC(=O)[C@H](CC(C)C)NC(=O)[C@H](CCC(=O)O)NC(=O)[C@H](CO)NC(=O)[C@@H](NC(=O)[C@H](Cc1ccccc1)NC(=O)[C@H](CO)NC(=O)CNC(=O)[C@H](CCC(=O)O)NC(=O)C(C)(C)NC(=O)[C@@H](N)Cc1c[nH]cn1)[C@@H](C)O)[C@@H](C)O)[C@@H](C)CC)C(=O)N[C@@H](C)C(=O)N[C@@H](Cc1c[nH]c2ccccc12)C(=O)N[C@@H](CC(C)C)C(=O)N[C@@H](Cc1ccc(O)cc1)C(=O)N[C@@H](C)C(=O)N[C@@H](Cc1c[nH]cn1)C(=O)N[C@@H](CCCCN)C(=O)N[C@H](C(=O)N[C@H](C(=O)N[C@@H](CC(=O)O)C(=O)O)[C@@H](C)O)[C@@H](C)CC) [Compound 28]
0.19	0.013	H-H[Aib]EGTFTSELATILDEQAARDFIAWLQAQKITD-OH (SMILES CC[C@H](C)[C@H](NC(=O)[C@H](Cc1ccccc1)NC(=O)[C@H](CC(=O)O)NC(=O)[C@H](CCCNC(=N)N)NC(=O)[C@H](C)NC(=O)[C@H](C)NC(=O)[C@H](CCC(N)=O)NC(=O)[C@H](CCC(=O)O)NC(=O)[C@H](CC(=O)O)NC(=O)[C@H](CC(C)C)NC(=O)[C@@H](NC(=O)[C@@H](NC(=O)[C@H](C)NC(=O)[C@H](CC(C)C)NC(=O)[C@H](CCC(=O)O)NC(=O)[C@H](CO)NC(=O)[C@@H](NC(=O)[C@H](Cc1ccccc1)NC(=O)[C@@H](NC(=O)CNC(=O)[C@H](CCC(=O)O)NC(=O)C(C)(C)NC(=O)[C@@H](N)Cc1c[nH]cn1)[C@@H](C)O)[C@@H](C)O)[C@@H](C)O)[C@@H](C)CC)C(=O)N[C@@H](C)C(=O)N[C@@H](Cc1c[nH]c2ccccc12)C(=O)N[C@@H](CC(C)C)C(=O)N[C@@H](CCC(N)=O)C(=O)N[C@@H](C)C(=O)N[C@@H](CCC(N)=O)C(=O)N[C@@H](CCCCN)C(=O)N[C@H](C(=O)N[C@H](C(=O)N[C@@H](CC(=O)O)C(=O)O)[C@@H](C)O)[C@@H](C)CC) [Compound 26]
0.049	0.042	H-H[Aib]EGSFTSELATILDEQAARDFIAWLQAHKITD-OH (SMILES CC[C@H](C)[C@H](NC(=O)[C@H](Cc1ccccc1)NC(=O)[C@H](CC(=O)O)NC(=O)[C@H](CCCNC(=N)N)NC(=O)[C@H](C)NC(=O)[C@H](C)NC(=O)[C@H](CCC(N)=O)NC(=O)[C@H](CCC(=O)O)NC(=O)[C@H](CC(=O)O)NC(=O)[C@H](CC(C)C)NC(=O)[C@@H](NC(=O)[C@@H](NC(=O)[C@H](C)NC(=O)[C@H](CC(C)C)NC(=O)[C@H](CCC(=O)O)NC(=O)[C@H](CO)NC(=O)[C@@H](NC(=O)[C@H](Cc1ccccc1)NC(=O)[C@H](CO)NC(=O)CNC(=O)[C@H](CCC(=O)O)NC(=O)C(C)(C)NC(=O)[C@@H](N)Cc1c[nH]cn1)[C@@H](C)O)[C@@H](C)O)[C@@H](C)CC)C(=O)N[C@@H](C)C(=O)N[C@@H](Cc1c[nH]c2ccccc12)C(=O)N[C@@H](CC(C)C)C(=O)N[C@@H](CCC(N)=O)C(=O)N[C@@H](C)C(=O)N[C@@H](Cc1c[nH]cn1)C(=O)N[C@@H](CCCCN)C(=O)N[C@H](C(=O)N[C@H](C(=O)N[C@@H](CC(=O)O)C(=O)O)[C@@H](C)O)[C@@H](C)CC) [Compound 24]
0.37	0.12	H-H[Aib]EGTFTSELSTILDEQAARDFIAWLHAQKITD-OH (SMILES CC[C@H](C)[C@H](NC(=O)[C@H](Cc1ccccc1)NC(=O)[C@H](CC(=O)O)NC(=O)[C@H](CCCNC(=N)N)NC(=O)[C@H](C)NC(=O)[C@H](C)NC(=O)[C@H](CCC(N)=O)NC(=O)[C@H](CCC(=O)O)NC(=O)[C@H](CC(=O)O)NC(=O)[C@H](CC(C)C)NC(=O)[C@@H](NC(=O)[C@@H](NC(=O)[C@H](CO)NC(=O)[C@H](CC(C)C)NC(=O)[C@H](CCC(=O)O)NC(=O)[C@H](CO)NC(=O)[C@@H](NC(=O)[C@H](Cc1ccccc1)NC(=O)[C@@H](NC(=O)CNC(=O)[C@H](CCC(=O)O)NC(=O)C(C)(C)NC(=O)[C@@H](N)Cc1c[nH]cn1)[C@@H](C)O)[C@@H](C)O)[C@@H](C)O)[C@@H](C)CC)C(=O)N[C@@H](C)C(=O)N[C@@H](Cc1c[nH]c2ccccc12)C(=O)N[C@@H](CC(C)C)C(=O)N[C@@H](Cc1c[nH]cn1)C(=O)N[C@@H](C)C(=O)N[C@@H](CCC(N)=O)C(=O)N[C@@H](CCCCN)C(=O)N[C@H](C(=O)N[C@H](C(=O)N[C@@H](CC(=O)O)C(=O)O)[C@@H](C)O)[C@@H](C)CC) [Compound 27]
